US20260224736A1 (Sanofi, published 2026)

T1: human CD105 (human, UniProt P17813 26-658)
T1 construct: whole, on cells; The target is presented on primary human HSCs; also called HuCD105; endoglin
T1 sequence (looked up): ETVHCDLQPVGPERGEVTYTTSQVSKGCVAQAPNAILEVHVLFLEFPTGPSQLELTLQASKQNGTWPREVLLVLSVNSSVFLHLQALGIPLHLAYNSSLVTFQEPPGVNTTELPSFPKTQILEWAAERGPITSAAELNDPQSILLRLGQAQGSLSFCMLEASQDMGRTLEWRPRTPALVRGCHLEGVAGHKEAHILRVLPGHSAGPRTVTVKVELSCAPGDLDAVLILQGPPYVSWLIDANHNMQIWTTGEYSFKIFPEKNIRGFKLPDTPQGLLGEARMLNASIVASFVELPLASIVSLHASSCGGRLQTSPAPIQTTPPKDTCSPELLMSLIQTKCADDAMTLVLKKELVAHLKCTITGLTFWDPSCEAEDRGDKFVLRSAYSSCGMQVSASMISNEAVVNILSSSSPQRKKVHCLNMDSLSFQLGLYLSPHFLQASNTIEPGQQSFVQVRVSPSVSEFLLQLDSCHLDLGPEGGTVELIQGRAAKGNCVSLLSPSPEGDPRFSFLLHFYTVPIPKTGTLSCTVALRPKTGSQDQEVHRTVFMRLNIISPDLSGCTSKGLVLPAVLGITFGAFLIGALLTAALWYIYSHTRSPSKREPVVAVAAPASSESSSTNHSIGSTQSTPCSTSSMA


How the values were obtained:
human CD105 = target: T1, human CD105; assay: flow cytometry of primary human HSCs treated with Fab-conjugated KC3 LNPs; DiI fluorescence as measure of LNP binding
Text: (§1) For conjugation with full-length antibodies, the LNPs were fused with a streptavidin moiety, and the conjugated full-size antibodies were tagged with biotin. Specifically, lysine groups on the streptavidin were reacted with Traut's reagent to covalently attach thiol groups. The thiolated streptavidin was then conjugated to DSPE-PEG(2k)-maleimide via covalent coupling between the maleimide group and the thiol groups attached to the streptavidin. The streptavidin-fused lipid was then reacted with the biotinylated antibody. Finally, the lipid-streptavidin-antibody conjugate was inserted into the LNP by incubation at 60° C. for 1 hour. The LNPs also incorporated a fluorescent lipid dye,′,1′-Dioctadecyl-3,′,3′,3′-Tetramethylindocarbocyanine-5,5′-Disulfonic Acid (DiIC(18)5-DS). The GFP mRNA was used to measure transfection, as the mRNA must enter the cell and escape the endosome to be transcribed into protein, allowing for fluorescence. The DiIC(18)5-DS was used as a measure of LNP targeting because the cells will have DiI fluorescence so long as the LNPs are capable of binding to the HSCs. Therefore, GFP expression provided a measure of LNP transfection while DiI positive events were representative of Fabs that target H—SCs. […] The HSCs were incubated with the LNPs for 24 and 72 hours, after which the GFP fluorescence and DiI fluorescence were measured using flow cytometry.

human CD117 = target: T2, human CD117 (human, UniProt P10721 26-976); assay: as above
T2 construct: whole, on cells; The target is presented on primary human HSCs, either in vitro or engrafted in NSG mice; No recombinant CD117 was used; also called HuCD117; c-kit
Text: as §1

T2 sequence (P10721 26-976): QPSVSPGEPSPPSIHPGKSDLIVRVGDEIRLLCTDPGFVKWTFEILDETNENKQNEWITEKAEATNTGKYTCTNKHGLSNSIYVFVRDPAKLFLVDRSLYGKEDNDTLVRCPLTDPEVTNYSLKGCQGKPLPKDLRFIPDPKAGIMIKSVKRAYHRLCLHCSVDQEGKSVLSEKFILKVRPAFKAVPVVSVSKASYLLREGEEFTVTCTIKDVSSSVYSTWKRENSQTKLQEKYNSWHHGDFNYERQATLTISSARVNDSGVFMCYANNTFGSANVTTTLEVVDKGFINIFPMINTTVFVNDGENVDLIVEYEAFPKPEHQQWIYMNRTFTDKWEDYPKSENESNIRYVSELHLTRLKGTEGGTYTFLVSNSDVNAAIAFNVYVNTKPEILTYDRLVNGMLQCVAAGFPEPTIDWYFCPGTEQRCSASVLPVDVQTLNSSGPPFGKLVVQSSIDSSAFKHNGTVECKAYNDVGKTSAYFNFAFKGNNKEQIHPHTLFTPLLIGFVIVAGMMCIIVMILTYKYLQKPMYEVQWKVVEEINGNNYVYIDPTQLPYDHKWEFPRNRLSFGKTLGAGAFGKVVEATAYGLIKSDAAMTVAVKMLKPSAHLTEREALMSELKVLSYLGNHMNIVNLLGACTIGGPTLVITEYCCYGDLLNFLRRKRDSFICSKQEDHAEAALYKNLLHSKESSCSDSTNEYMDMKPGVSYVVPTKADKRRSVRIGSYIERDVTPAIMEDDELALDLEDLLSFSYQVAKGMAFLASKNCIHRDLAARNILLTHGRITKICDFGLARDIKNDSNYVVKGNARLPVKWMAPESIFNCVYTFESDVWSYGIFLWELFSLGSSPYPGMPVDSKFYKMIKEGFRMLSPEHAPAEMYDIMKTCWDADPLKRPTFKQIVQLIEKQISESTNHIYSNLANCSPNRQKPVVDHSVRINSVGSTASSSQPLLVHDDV

Row | Binder | binding result (human CD105) | binding result (human CD117)
1 | anti-HuCD105 Ab3 Fab bDS (Fab, V domains shown, C-terminal cysteine in the heavy chain covalently coupled to DSPE-PEG(2k)-maleimide (lipid conjugate inserted into the LNP), Tested only as a lipid-Fab conjugate on the surface of LNPs) VH: EVKLEESGGGLVQPGGSMKLSCAASGFTFSDAWMDWVRQSPEKGLEWVAEIRSKASNHATYYAESVKGRFTISRDDSKSSVYLQMNSLRAEDTGIYYCTRWRRFFDSWGQGTTLTVSS VL: QIVLSQSPAILSASPGEKVTMTCRASSSVSYMHWYQQKPGSSPKPWIYATSNLASGVPVRFSGSGSGTSYSLTISRVEAEDAATYYCQQWSSNPLTFGAGTKLELKR | binds | –
2 | anti-HuCD117 Ab2 Fab bDS (Fab, V domains shown, C-terminal cysteine in the heavy chain covalently coupled to DSPE-PEG(2k)-maleimide (lipid conjugate inserted into the LNP), Tested only as a lipid-Fab conjugate on the surface of LNPs) VH: EVQLVESGGGLVQPGGSLRLSCAASGFTFSDADMDWVRQAPGKGLEWVGRTRNKAGSYTTEYAASVKGRFTISRDDSKNSLYLQMNSLKTEDTAVYYCAREPKYWIDFDLWGRGTLVTVSS VL: not shown | – | binds
